T1: CtMon1, full length (Chaetomium thermophilum Mon1) (Chaetomium thermophilum, UniProt G0SGS3 1-665)
T1 construct: Mon1 of Chaetomium thermophilum, NCBI XP_006697030; C-terminal domain printed as aa 486-665; GST cleaved with PreScission protease; source: E. coli Rosetta (DE3), co-expressed with CtCcz1, purified (glutathione column, size exclusion chromatography); not shown: GST, N-terminal, cleaved
T1 sequence (looked up): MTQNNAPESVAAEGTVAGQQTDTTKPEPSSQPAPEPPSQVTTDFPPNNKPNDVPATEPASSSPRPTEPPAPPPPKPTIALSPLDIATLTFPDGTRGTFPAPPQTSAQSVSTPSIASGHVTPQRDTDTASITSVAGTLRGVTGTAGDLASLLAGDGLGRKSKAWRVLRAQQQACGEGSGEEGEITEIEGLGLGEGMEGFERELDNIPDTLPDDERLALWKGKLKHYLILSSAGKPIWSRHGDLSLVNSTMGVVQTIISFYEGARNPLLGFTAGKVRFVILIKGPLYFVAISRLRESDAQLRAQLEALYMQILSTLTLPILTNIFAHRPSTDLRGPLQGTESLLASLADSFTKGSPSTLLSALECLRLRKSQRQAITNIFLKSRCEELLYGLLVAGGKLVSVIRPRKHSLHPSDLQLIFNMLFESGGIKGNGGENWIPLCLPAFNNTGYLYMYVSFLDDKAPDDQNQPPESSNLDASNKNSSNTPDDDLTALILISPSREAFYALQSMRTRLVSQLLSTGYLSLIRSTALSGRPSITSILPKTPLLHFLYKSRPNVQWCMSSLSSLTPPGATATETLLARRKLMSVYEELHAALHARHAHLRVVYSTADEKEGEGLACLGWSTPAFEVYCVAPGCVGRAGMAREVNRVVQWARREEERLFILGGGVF


Legend:
[1] = target: CtYpt7 wild type (Chaetomium thermophilum Ypt7) (Chaetomium thermophilum); assay: cell-based or functional assay
[2] = target: the molecule itself; assay: SEC; gel filtration of the full-length CtMC1 complex, co-expressed in E. coli and purified on a glutathione column by GST-CtMon1, tags cleaved
[3] = target: T1, CtMon1, full length (Chaetomium …); assay: as above; details: both partners purified

Binder | kcat/KM of MC1-stimulated exchange of MANT-GDP for GTP on Ypt7 (fluorescence GEF assay, 0-2.0 μM CtMC1, 25 °C) [1] [M⁻¹ s⁻¹] | stoichiometry N [2] | stoichiometry N [3]
full-length CtMC1 complex (CtMon1-CtCcz1) (complex, Chaetomium thermophilum, Mon1 of Chaetomium thermophilum, NCBI XP_006697030; codon-optimized synthetic gene; Ccz1 of Chaetomium thermophilum, NCBI XP_006695440; The Mon1-Ccz1 heterodimer forms a dimer of heterodimers (two copies of each protein); the rows of m3 with itself mean the association of two heterodimers; also called CtMC1full; Mon1-Ccz1 complex; source: E. coli Rosetta (DE3), co-expressed, purified (glutathione …)) chain 1: MTQNNAPESVAAEGTVAGQQTDTTKPEPSSQPAPEPPSQVTTDFPPNNKPNDVPATEPASSSPRPTEPPAPPPPKPTIALSPLDIATLTFPDGTRGTFPAPPQTSAQSVSTPSIASGHVTPQRDTDTASITSVAGTLRGVTGTAGDLASLLAGDGLGRKSKAWRVLRAQQQACGEGSGEEGEITEIEGLGLGEGMEGFERELDNIPDTLPDDERLALWKGKLKHYLILSSAGKPIWSRHGDLSLVNSTMGVVQTIISFYEGARNPLLGFTAGKVRFVILIKGPLYFVAISRLRESDAQLRAQLEALYMQILSTLTLPILTNIFAHRPSTDLRGPLQGTESLLASLADSFTKGSPSTLLSALECLRLRKSQRQAITNIFLKSRCEELLYGLLVAGGKLVSVIRPRKHSLHPSDLQLIFNMLFESGGIKGNGGENWIPLCLPAFNNTGYLYMYVSFLDDKAPDDQNQPPESSNLDASNKNSSNTPDDDLTALILISPSREAFYALQSMRTRLVSQLLSTGYLSLIRSTALSGRPSITSILPKTPLLHFLYKSRPNVQWCMSSLSSLTPPGATATETLLARRKLMSVYEELHAALHARHAHLRVVYSTADEKEGEGLACLGWSTPAFEVYCVAPGCVGRAGMAREVNRVVQWARREEERLFILGGGVF chain 2: MTTPVSPSPSGIIPAQLGFLAIYNPALGTTDETLEDQIVYYATASTLSQARRRHRRPRRRDRQRAQSVVKDSRPNAAGATGDSEAVAEDKDPVSKEERHERLRQIGLAQGMVEFAKSFSDGEPVDTIDTEKARVILVEVEEGWWILASIDLTRLPLPQIKTPTSSSAPPPAPNLNPLPPEPAYEYSSREVKPPSLLRADLLRAYDLFLLHHGSSLSSLLASQGRAQLVASLTRFWDHFLATWNVLLHGNPACDVFGGIKLAASGELGIGVGEEERGSGEREVLEGLVERVEGLVDVVVGRYGGPPSEKGPEEEQWLGLGGEVGEEDGAVFLGVGALDRKSLRGVVQWMEEVYVWGENAFGVGGSRAARRRRKRGAKESRVLKTGAGKKIPIGTGTGTEGKRGEAATPDMAGTPGSMDKLFSYLTLGYGTSWSLGLSGTSTPSDSDPGSVSKGMVESSESGKPRRDLSTGHFLLGLSECSEEELTSSQANPKAIFVELKPSYQHPSRKIPPEDPQPLGKVGPELPRDHTARLRPVIYVSQPFIYILLFSEITPSPSTWPTLAESLHAQLSPLQKPLLHSTSYRPERPVVETTSSSGTTTQHQIFDLVYDTETLTLQSTIPNIPDPFPYSATTPTGHSTGQQHHQQSIWTRVEALQTHAQILAILSSGRAIPTDPSSFTHLPWEEGERTCKTARGWWIVWTRVVEHSPPDAVSLHHARDDDDNDDDASCSVLGHLRSVSSSHAAGSTSSSSGSGFGLGAIPGLGGLGGWAADGATRLAQGIGIDTRRYVEGLLTSLGR | 21000 | 2 | 
CtCcz1, full length (Chaetomium thermophilum Ccz1) (natural protein, UniProt G0SD94 1-796, looked up, Ccz1 of Chaetomium thermophilum, NCBI XP_006695440; C-terminus printed as residues 250-796; His6-SUMO cleaved with SUMO protease; source: E. coli Rosetta (DE3), co-expressed with CtMon1, purified (glutathione column, size exclusion chromatography); not shown: His6, N-terminal, cleaved; SUMO, N-terminal, cleaved) MTTPVSPSPSGIIPAQLGFLAIYNPALGTTDETLEDQIVYYATASTLSQARRRHRRPRRRDRQRAQSVVKDSRPNAAGATGDSEAVAEDKDPVSKEERHERLRQIGLAQGMVEFAKSFSDGEPVDTIDTEKARVILVEVEEGWWILASIDLTRLPLPQIKTPTSSSAPPPAPNLNPLPPEPAYEYSSREVKPPSLLRADLLRAYDLFLLHHGSSLSSLLASQGRAQLVASLTRFWDHFLATWNVLLHGNPACDVFGGIKLAASGELGIGVGEEERGSGEREVLEGLVERVEGLVDVVVGRYGGPPSEKGPEEEQWLGLGGEVGEEDGAVFLGVGALDRKSLRGVVQWMEEVYVWGENAFGVGGSRAARRRRKRGAKESRVLKTGAGKKIPIGTGTGTEGKRGEAATPDMAGTPGSMDKLFSYLTLGYGTSWSLGLSGTSTPSDSDPGSVSKGMVESSESGKPRRDLSTGHFLLGLSECSEEELTSSQANPKAIFVELKPSYQHPSRKIPPEDPQPLGKVGPELPRDHTARLRPVIYVSQPFIYILLFSEITPSPSTWPTLAESLHAQLSPLQKPLLHSTSYRPERPVVETTSSSGTTTQHQIFDLVYDTETLTLQSTIPNIPDPFPYSATTPTGHSTGQQHHQQSIWTRVEALQTHAQILAILSSGRAIPTDPSSFTHLPWEEGERTCKTARGWWIVWTRVVEHSPPDAVSLHHARDDDDNDDDASCSVLGHLRSVSSSHAAGSTSSSSGSGFGLGAIPGLGGLGGWAADGATRLAQGIGIDTRRYVEGLLTSLGR |  |  | 1

Source: PMC5216073, “Architecture and mechanism of the late endosomal Rab7-like Ypt7 guanine nucleotide exchange factor complex Mon1–Ccz1” (Nature Communications, 2017)
